Laboratory results reported in patent publication US20260258115A1.

Tests used:
[1] = molecular target: Respiratory Syncytial Virus fusion glycoprotein (RSV F) on RSV-A2 virus (Respiratory Syncytial Virus subtype A (RSV-A2)); assay: cell-based or functional assay
[2] = molecular target: RSV postfusion F (postF), F deltaFP (Respiratory Syncytial Virus); assay: BLI, IgG on anti-human IgG sensor, 100 nM antigen
[3] = molecular target: RSV prefusion F (preF), DS-Cav1 (Respiratory Syncytial Virus); assay: BLI, IgG on anti-human IgG sensor, 100 nM antigen

Row | Binder | Neutralization IC50 (RSV subtype A) [1] [µg/mL] | Kd [2] [nM] | Kd [3] [nM]
1 | ADI-41225 (antibody, V domains shown) VH: EVQLVESGGGLVKPGGSLRLSCAASGFSLSDYYMTWLRQAPGKGLEWVSSIGTTSTYTNYAESVKDRFTISRDNAKNSLYLQMNSLRAEDTAVYYCARDWGFGVERGYFDLWGRGTLVTVSS VL: DIVLTQTPSTLSASVGDRVTITCRASQSISFWLAWYQQKPGKAPKLLIYKASTLESGVPSRFSGRGSGTDFTLTISSLQPDDFATYYCQQYNTYTWTFGQGTKVEIK | > 25 | 0.733 | 4.15
2 | ADI-41231 (antibody, V domains shown) VH: QVQLVQSGAEVKKPGESLKISCKGSGYSFTNNWVGWVRQMPGKGLEWMGIIFPGDSDTRYSPSFRGQVTISVDTSINTAFLQWNSLGASDTAMYYCAMTDYNYSFKSWGQGTLVTVSS VL: NFMLTQPHSVSESPGKTITISCTRSSGNIGNNYVQWYQQRPGSSFTTVIYEDYQRPSGVPDRFSGSIDSSSNSATLTISGLKTEDEADYYCQSYDSSNPYVFGTGTKVTVL | > 25 | 0.426 | 3.05
3 | ADI-41202 (antibody, V domains shown) VH: QVQLVESGAEVKKPGSSVKISCKASGGTFSSHPISWVRQAPGQGLEWMGRIVPIFGIANYAQKFQGRVTMIADKSTNTAYMELSNLRSEDTAVYYCASPVYDSSGFQWGQGTLVTVSS VL: QSALIQPRSVSGSPGQSVTISCTGTSGDGGFYNYVSWYQQHPGKTPKLMIYDVDQRPSGVPDRFSGSKSGNTASLTISGLQAEDEADYYCCSYPGNPLYVFGTGTKLTVL | > 25 | 0.333 | 1.12
4 | ADI-41212 (antibody, V domains shown) VH: EVQLLESGAEVKKPGASVKVSCKASGYTFTDYYIHWVRQAPGQGLEWMGRINPKNGDAIYAQNFQGRVTMTRDTSISTAYMEVSRLTSDDTAVYYCARDQMWLVLDYWGQGTLVTVSS VL: QSALTQPASVSGSPGQSITISCTGTSSDVGGYDYVSWYQQHPGKAPKLMIHDVTNRPSGISHRFSGSKSGNTASLTISGLQAGDEADYYCSSYTRSNTKVFGTGTKVTVL | > 25 | 0.4 | 3.18
5 | ADI-41228 (antibody, V domains shown) VH: EVQLLESGPGLVKPSETLSLTCTVSGGSISSYQWNWIRQPPGKGLEWLGYVYYSGSTNYNPSLKSRVTLSVDTSKNQFSLKLSSVTAADTAVYYCARDRRDGSFVFDYWGQGTLVTVSS VL: QSVLIQPASVSGSPGQSITISCTGTSSDVGGYNYVSWYQQHPGKAPKLMIYDVSNRPSGISNRFSGSKSGNTASLTISGLQAEDEADYYCSSYTSSTTLVFGTGTKVTVL | > 25 | 0.618 | 4.86
6 | ADI-41205 (antibody, V domains shown) VH: QVQLQESGPGLVKPSGTLSLTCAVSGGSISSTNWWSWVRQPPGKGLEWIGEIYHSGSTNYNPSLKSRVTISVDKSNNQFSLNLSSVTAADTAVYYCARGVITYRGSWFLQYFDYWGQGTLVTVSS VL: DIRVTQSPDSLAVSLGERATINCKSSQSLFYSSNNQNYLAWYQQKPGQPPKLLIYWASTRQSGVPHRFSGSGSGTDFTLTISSLQAEDVAVYYCQQYYSSPLTFGGGTKVEIK | > 25 | 0.536 | 1.16
7 | ADI-41215 (antibody, V domains shown) VH: QVQLVESGGGVVRPGGSLRLSCAASGFTFDDYGMSWVRQAPGKGLEWVSGINWSGGSTDYADSVKGRFTISRDNAKNSLYLQMNSLRAEDTALYYCAKEGQEWELLPWYFDLWGRGTLVTVSS VL: QPVLTQPASVSGSPGQSITIPCTGTSSDVGIYNLVSWYQQHPGKAPKLMIYDVSKRPSGVSNRFSGSKSGNTASLTISGLQAEDEADYYCCSYAGGSTYVFGTGTKLTVL | 0.32 | 0.563 | 0.437
8 | ADI-41201 (antibody, V domains shown) VH: EVQLLESGGGLVQPGGSLRLSCAASGFAFDIYSMNWVRQAPGKGLEWLSYISSRGETIYYADSVKGRFTISRDNARNSLYLQMNGLRDEDTATYYCYYYGSGISSHGGAFDYWGQGTLVTVSS VL: DIVMTQTPATLSLSPGERATLTSRASQSVSSFLAWYQQKPGQAPRLLIYDVSNRATGVPARFSGSGSGTDFTLTISSLEPEDIAVYYCQQRNTWPAITFGQGTKVEIK | > 25 | 0.637 | 3.82
9 | ADI-41207 (antibody, V domains shown) VH: QVQLVQSGPALVKPTQTLTLTCTFSGFSLSTKGMCVSWIRQPPGKALEWLALIDWDDDKFYSTSLKTRLTISKDTSKNQVVLTMTNMDPVDTATYYCARTLYFYGSGSLSDYCFDYWGQGTPVTVSS VL: QPVLTQPRSVSGSPGQSVTISCTGTSRDVGNYNFVSWYQQHPGKAPKLIIYDVTKRPSGVPDRFSGSKSGNTASLTISGLQAEDEADYYCCSYAGTYTWVFGGGTKVTVL | > 25 | 0.438 | 2.53
10 | ADI-41230 (antibody, V domains shown) VH: QVQLVQSGAEVKKPGESLKISCKASGYSFTSHYWIGWVRQMPGKGLEWMGFIFPGDSDTRYSPSLQGQVTISADKSTNTAYLQWNSLKASDTAMYYCARLEYLVSGFEYWGQGTLVTVSS VL: QPGLTQPHSVSESPGKTVTISCTRSSGSIASNYVHWYQQRPGSFPTTVIYEDNQRPSGVPDRFSGSIDSSSNSASLTISGLRTEDEADYYCQSYDSSNPVVFGGGTKVTVL | 24.1 | 0.407 | 1.83
11 | ADI-41224 (antibody, V domains shown) VH: EVQLVETGGGLVQPGRSLRLSCTASGFTFGDYAMNWVRQAPGKGLEWIGIIRTKTYGGTTEYAASVKGRFTISRDDSKGIAYLQMNSLKTEDTGVYYCTMPVLNMDVWGQGTTVTVSS VL: QPVLTQPHSVSESPGKTVTISCTRNIGNIASNYVQWYQQRPGSSPTTVIYEDNQRPSGVPDRFSGSIDISSNSASLTISGLKTEDEADYYCQSYDSNNPWVFGGGTQLTVL | 0.13 | 0.558 | 0.524
12 | ADI-41197 (antibody, V domains shown) VH: QVQLVQSGAEVKKPGASVKVSCKASGYTFSGYYMHWVRQAPGQGLEWVGRINPKSGDTVYAQKFQGRVTMTRDTSISTAYMELSRLISDDTAKYYCARQEDHYYGSGNFYNSFDFWGQGTLVTVSS VL: ETTLTQSPSSLSASVGDRVTITCRASQSISSNLNWYQQKPGKAPKLLIYGASTLQSGVPSRFSGSGSGTDFTLTISSLQPEDLATYYCQQSYSNPGKTFGQGTKVDIK | 0.27 | 0.531 | 0.795
13 | ADI-41213 (antibody, V domains shown) VH: EVQLVESGGGLIQPGGSLRLSCAASGFTVSSNYMSWVRQAAGKGLEWVSLIYSGDSTYYADSVKGRFTISRDNSQNTLYLQMNSLRAEDTAVYYCARDASPNVGYYGMDVWGQGTTVTVSS VL: DIVLTQPPSVSVSPGQTASITCSGGKLGDTYACWYQQKPGQSPVLVIYQDSKRPSGIPERFSGSNSGNTATLTISGTQAMDEADYYCQAWDSSTARYVFGTGTKVTVL | > 25 | 0.577 | 3.47
14 | ADI-41214 (antibody, V domains shown) VH: EVQLVESGGGLVQPGGSLRLSCAASGFTFSSYWMSWVRQAPGKGLEWVATIKQDGSEKYSVDSVKGRFTISRDNPKKSLYLQMNSLRAEDTAVYYCARDYRVEYYHSSDKLKRYYYYGMDVWGQGTTVTVSS VL: DIRVTQSPSSLSASVGDRVTITCRASQSISTYLNWYQQKPGKAPKFLIYAASSLESGVPSRFSGSGSGTDFSLTISSLQPEDFATYYCQQSYSIPITFGQGTRLEIK | > 25 | 1.02 | 5.7
15 | ADI-41196 (antibody, V domains shown) VH: EVQLVESGGGLVQPGGSLRLSCIVSGFPFNTYAMSWVRQAPGKGLEWVSVVSASGGNTDYADSVKGRFTISRDNSKKTLYLQMNSLRAEDTAVYYCARTESNTLAPSWSGRYVTDWYFDLWGRGTLVTVSS VL: EIVMTQSPSSLSASVGDRVTITCRASQSISSFLNWYQQKPGKAPKLLISAASSLQSGVPSRFSGSGSGTDFTLTISSLQPEDFATYYCQQSYSIPTFGQGTRLEIK | > 25 | 0.595 | 2.92
16 | ADI-41200 (antibody, V domains shown) VH: EVQLLESGGGLVKPGGSLRLSCAASGLTFSDHDMSWVRQAPGKGLEWVSGIGGSGSNTYYAGSVKGRFTISRDNSKNTLYLQMDSLRVEDTAVYYCAKDPYGDYRDYYGMDVWGQGTTVTVSS VL: DIVLTQTPFSLPVTPGEPASISCRSSQSLLKSNGYNYLDWFLQKPGQSPQLLIYLGSNRASGVPDRFSGSGSGTDFTLKISRVEAEDVGVYYCMQTLQALYTFGQGTKVEIK | > 25 | 0.318 | 0.334
